Reference: patent publication US20250057970A1, “TROP2 TARGETING ANTIBODY-DRUG CONJUGATE, AND PREPARATION METHOD AND USE THEREFOR” (priority 2020, published 2025)

T1: Tumor-associated calcium signal transducer 2 (UniProt P09758 27-323, limits assumed)
T1 sequence (looked up): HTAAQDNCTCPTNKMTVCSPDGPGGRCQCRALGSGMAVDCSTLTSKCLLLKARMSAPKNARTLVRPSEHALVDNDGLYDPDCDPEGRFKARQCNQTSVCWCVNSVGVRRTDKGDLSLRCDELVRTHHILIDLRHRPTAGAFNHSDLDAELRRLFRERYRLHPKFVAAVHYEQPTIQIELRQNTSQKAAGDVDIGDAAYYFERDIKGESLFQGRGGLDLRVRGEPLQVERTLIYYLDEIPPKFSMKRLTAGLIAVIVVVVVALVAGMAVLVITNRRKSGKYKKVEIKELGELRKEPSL

B1: FDA018-LE22 (antibody, human IgG1, kappa, V domains shown)
VH: QVQLQQSGSELKKPGASVKVSCKASGYTFTNYGMNWVKQAPGQGLKWMGWINTYTGEPTYTDDFKGRFAFSLDTSVSTAYLQISSLKADDTAVYFCARGGFGSSYWYFDVWGQGSLVTVSS
VL: DIQLTQSPSSLSASVGDRVSITCKASQDVSIAVAWYQQKPGKAPKLLIYSASYRYTGVPDRFSGSGSGTDFTLTISSLQPEDFAVYYCQQHYITPLTFGAGTKVEIKR
modifications: linker-drug LE22 coupled to cysteine sulfhydryl groups after reduction of the interchain disulfide bonds; DAR 4.00 for the whole antibody; sites not stated
B2: FDA018-LE17 (antibody, human IgG1, kappa, V domains shown)
VH: QVQLQQSGSELKKPGASVKVSCKASGYTFTNYGMNWVKQAPGQGLKWMGWINTYTGEPTYTDDFKGRFAFSLDTSVSTAYLQISSLKADDTAVYFCARGGFGSSYWYFDVWGQGSLVTVSS
VL: DIQLTQSPSSLSASVGDRVSITCKASQDVSIAVAWYQQKPGKAPKLLIYSASYRYTGVPDRFSGSGSGTDFTLTISSLQPEDFAVYYCQQHYITPLTFGAGTKVEIKR
modifications: linker-drug LE17 coupled to cysteine sulfhydryl groups after reduction of the interchain disulfide bonds; DAR 3.98 for the whole antibody; sites not stated
B3: FDA018-LE19 (antibody, human IgG1, kappa, V domains shown)
VH: QVQLQQSGSELKKPGASVKVSCKASGYTFTNYGMNWVKQAPGQGLKWMGWINTYTGEPTYTDDFKGRFAFSLDTSVSTAYLQISSLKADDTAVYFCARGGFGSSYWYFDVWGQGSLVTVSS
VL: DIQLTQSPSSLSASVGDRVSITCKASQDVSIAVAWYQQKPGKAPKLLIYSASYRYTGVPDRFSGSGSGTDFTLTISSLQPEDFAVYYCQQHYITPLTFGAGTKVEIKR
modifications: linker-drug LE19 coupled to cysteine sulfhydryl groups after reduction of the interchain disulfide bonds; DAR 4.13 for the whole antibody; sites not stated
B4: FDA018-LS13 (antibody, human IgG1, kappa, V domains shown)
VH: QVQLQQSGSELKKPGASVKVSCKASGYTFTNYGMNWVKQAPGQGLKWMGWINTYTGEPTYTDDFKGRFAFSLDTSVSTAYLQISSLKADDTAVYFCARGGFGSSYWYFDVWGQGSLVTVSS
VL: DIQLTQSPSSLSASVGDRVSITCKASQDVSIAVAWYQQKPGKAPKLLIYSASYRYTGVPDRFSGSGSGTDFTLTISSLQPEDFAVYYCQQHYITPLTFGAGTKVEIKR
modifications: linker-drug LS13 (SN-38 payload) coupled to cysteine sulfhydryl groups after reduction of the interchain disulfide bonds; DAR 3.97 for the whole antibody; sites not stated
B5: FDA018-LE21 (antibody, human IgG1, kappa, V domains shown)
VH: QVQLQQSGSELKKPGASVKVSCKASGYTFTNYGMNWVKQAPGQGLKWMGWINTYTGEPTYTDDFKGRFAFSLDTSVSTAYLQISSLKADDTAVYFCARGGFGSSYWYFDVWGQGSLVTVSS
VL: DIQLTQSPSSLSASVGDRVSITCKASQDVSIAVAWYQQKPGKAPKLLIYSASYRYTGVPDRFSGSGSGTDFTLTISSLQPEDFAVYYCQQHYITPLTFGAGTKVEIKR
modifications: linker-drug LE21 coupled to cysteine sulfhydryl groups after reduction of the interchain disulfide bonds; DAR 4.05 for the whole antibody; sites not stated
B6: FDA018-LE18 (antibody, human IgG1, kappa, V domains shown)
VH: QVQLQQSGSELKKPGASVKVSCKASGYTFTNYGMNWVKQAPGQGLKWMGWINTYTGEPTYTDDFKGRFAFSLDTSVSTAYLQISSLKADDTAVYFCARGGFGSSYWYFDVWGQGSLVTVSS
VL: DIQLTQSPSSLSASVGDRVSITCKASQDVSIAVAWYQQKPGKAPKLLIYSASYRYTGVPDRFSGSGSGTDFTLTISSLQPEDFAVYYCQQHYITPLTFGAGTKVEIKR
modifications: linker-drug LE18 coupled to cysteine sulfhydryl groups after reduction of the interchain disulfide bonds; DAR 3.96 for the whole antibody; sites not stated
B7: FDA018-LE14 (antibody, human IgG1, kappa, V domains shown)
VH: QVQLQQSGSELKKPGASVKVSCKASGYTFTNYGMNWVKQAPGQGLKWMGWINTYTGEPTYTDDFKGRFAFSLDTSVSTAYLQISSLKADDTAVYFCARGGFGSSYWYFDVWGQGSLVTVSS
VL: DIQLTQSPSSLSASVGDRVSITCKASQDVSIAVAWYQQKPGKAPKLLIYSASYRYTGVPDRFSGSGSGTDFTLTISSLQPEDFAVYYCQQHYITPLTFGAGTKVEIKR
modifications: linker-drug LE14 coupled to cysteine sulfhydryl groups after reduction of the interchain disulfide bonds; DAR 4.00 for the whole antibody; sites not stated
B8: FDA018-LE16 (antibody, human IgG1, kappa, V domains shown)
VH: QVQLQQSGSELKKPGASVKVSCKASGYTFTNYGMNWVKQAPGQGLKWMGWINTYTGEPTYTDDFKGRFAFSLDTSVSTAYLQISSLKADDTAVYFCARGGFGSSYWYFDVWGQGSLVTVSS
VL: DIQLTQSPSSLSASVGDRVSITCKASQDVSIAVAWYQQKPGKAPKLLIYSASYRYTGVPDRFSGSGSGTDFTLTISSLQPEDFAVYYCQQHYITPLTFGAGTKVEIKR
modifications: linker-drug LE16 coupled to cysteine sulfhydryl groups after reduction of the interchain disulfide bonds; DAR 4.03 for the whole antibody; sites not stated

Target: T1, Tumor-associated calcium signal …
Assay: cell-based or functional assay

Row | Binder | IC50 (nM), in vitro killing activity, BXPC3 Cell | IC50 (nM), in vitro killing activity, NCI-N87 Cell | IC50 (nM), in vitro killing activity, MDA-MB-468 Cell
1 | B1 | 1.69 nM | 3.25 nM | 
2 | B2 | 0.62 nM | 1.12 nM | 0.82 nM
3 | B3 |  |  | 1.03 nM
4 | B4 | 61.3 nM |  | 67.4 nM
5 | B5 | 1.23 nM | 1.23 nM | 
6 | B6 |  |  | 0.86 nM
7 | B7 | 0.5 nM | 1.08 nM | 0.8 nM
8 | B8 | 1.58 nM | 1.35 nM | 1.64 nM
